The text below walks through data of publication doi:10.1101/2021.07.27.453956 (bioRxiv, 2021).

B1: His6-Ctp, recombinant (SFiNX subunit) (natural protein)
chain: MSDRKAVIKNADMSEEMQQDAVDCATQALEKYNIEKDIAAYIKKEFDKKYNPTWHCIVGRNFGSYVTHETRHFIYFYLGQVAILLFKSG
B2: TwinStrep-MBP-Panx, full length, recombinant (SFiNX subunit) (natural protein)
chain: MEAPMKLEVKVENYVECGINEDEATPLREGTGETPPHAFACGVPMSGSGWCSDPEDGNLVHHSATPTSDEHLQPSLDTIEPKMEPKIKEDADNAMLDSLLADPFENNSPATLQTPADVKPNAMLDSVEQGSRSCELLPSEFSKRENLDDMDLFSLKAAKTLVPDEQQSFPQNDTPIDDPEAADLIAQKREILKMLEMTAENRKVKHKKKKHKKERSHRSNKHQEESRKRNHSNSSSDEGADDKNQFDCDYRGHKKYKNRRGSASSQNESSKERKLRDTELDYVPVRPDEHFIRPIKFSNLIERRPPQVEFNTVNLSKADKRSLAVARAELVLEQIQQKANKEEPPEFHMVDTICKLPVNESFRNQDCFENPSPICNNMNVVYKFNSTPGTRIDLSKWGLETVPEATKRLLRLLGIDVARLKELQSTVKPSQRILKLKKEQLEQGLAPTEEQETATLYKNAATQTERRTATRDAGTQVRLESKLNGAFWQNPHFDPMNLTQHQSNVMLALQEIYQTLPSATMAVKLSRALAPALAIIKGRQP

The target of test [1] is Sov NTD (aa 14-90), C-terminal His tagged (D. melanogaster). The test can be described thus: ITC.
Test [2] addresses B2. The test can be described thus: co-purification of a recombinant complex.
The target in test [3] is Nxf2–Nxt1 heterodimer, recombinant (SFiNX subunits) (Drosophila, UniProt Q9VV73;Q9V3H8). The test can be described thus: co-purification of a recombinant complex.
Nxf2–Nxt1 heterodimer, recombinant (SFiNX subunits), sequence (Q9VV73 whole entry, one chain of several): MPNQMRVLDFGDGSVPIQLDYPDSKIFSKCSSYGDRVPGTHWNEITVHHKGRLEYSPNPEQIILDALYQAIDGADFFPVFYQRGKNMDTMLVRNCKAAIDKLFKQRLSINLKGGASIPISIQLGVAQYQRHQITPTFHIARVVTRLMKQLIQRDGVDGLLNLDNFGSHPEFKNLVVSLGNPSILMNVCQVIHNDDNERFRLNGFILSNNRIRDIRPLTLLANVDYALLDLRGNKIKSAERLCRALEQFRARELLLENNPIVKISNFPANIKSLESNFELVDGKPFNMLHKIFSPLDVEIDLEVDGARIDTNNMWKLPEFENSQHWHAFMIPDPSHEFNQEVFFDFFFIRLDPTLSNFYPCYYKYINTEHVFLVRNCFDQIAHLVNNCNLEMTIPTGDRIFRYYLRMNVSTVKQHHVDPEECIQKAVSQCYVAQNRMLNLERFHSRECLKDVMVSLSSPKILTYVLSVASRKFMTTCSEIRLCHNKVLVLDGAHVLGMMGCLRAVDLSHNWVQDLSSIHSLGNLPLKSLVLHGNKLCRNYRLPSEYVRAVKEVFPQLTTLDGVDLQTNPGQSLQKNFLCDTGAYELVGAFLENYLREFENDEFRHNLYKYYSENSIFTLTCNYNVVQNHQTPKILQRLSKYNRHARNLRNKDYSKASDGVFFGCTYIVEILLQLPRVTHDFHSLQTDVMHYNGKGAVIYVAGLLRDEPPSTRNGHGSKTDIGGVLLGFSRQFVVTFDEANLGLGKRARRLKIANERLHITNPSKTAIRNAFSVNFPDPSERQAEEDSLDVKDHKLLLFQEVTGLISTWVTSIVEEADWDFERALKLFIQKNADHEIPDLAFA

In turn, “His-SUMO tagged Panx LxxLL peptide (aa 82-108), wildtype (from UniProt Q9W2H9 82-108)” displayed a Kd in test [1] of 870 nM. On to B1, for which the binding result in test [2] is “binds”. As to B2, the binding result in test [3] was “binds”.
